Assay: Molecular penetration into the brain after focused ultrasound (FUS) induced BBB opening
Conditions: in vivo
Excerpt: First, there are three testing substances, and their molecular size spreading from 1 to nearly 150 kDa are employed in second procedure. Three substances are Gd-DTPA, Evans blue, and Bevacizumab.
FIGS. 10A and 10B are about that selected the UEI ranging of 0.65 and 1.25 for testing, and under testing the center frequency of only 0.4 MHz is employed. FIG. 10A illustrates the measured molecular penetration (molecule 1-3) of different exposure conditions (UEI set to 0, 0.65, and 1.25). FIG. 10B illustrates the measured molecular penetration (molecule 1-3) of different molecular ranges (UEI set to 0, 0.65, and 1.25). These measurement results will be compared with the final predict results.
The molecule 1 has the highest penetration because of its small molecular size (1 kDa; the predicted concentration range is 1.7 to 6.2 μM during UEI ranging of 0.65-1.25). […]
Integrating of the UEI and the UII by above uniform and calibrated method steps, in this embodiment, it is possible to examine the three molecular penetrations reflecting to the four imaging indexes with different UEIs. Another experiment is conducted, the three molecular penetrations was measured (shown in FIG. 10), and comparing to the quantified predict results of the UEI. The correlation of UEI is evaluated under the UII.

Compound	predicted concentration range (molecular penetration)
Bevacizumab [molecule 3]	0.02 to 2.1 µM
Cc1cc(-c2ccc(/N=N/c3ccc4c(S(=O)(=O)O)cc(S(=O)(=O)O)c(N)c4c3O)c(C)c2)ccc1/N=N/c1ccc2c(S(=O)(=O)O)cc(S(=O)(=O)O)c(N)c2c1O [molecule 2, Evans blue]	0.7 to 3.1 µM

Reference: patent publication US10076652B2, “Method for ultrasound-mediated delivery system to monitor molecular penetration” (CHANG GUNG UNIVERSITY, priority 2015, dated 2018)
